Assay results from patent publication US20230090901A1 (GAMMADELTA THERAPEUTICS, published 2023).
Numbering of substitutions follows the chain as printed.

B1: G4_5 (antibody, V domains shown)
VH: EVQLVQSGAEVKKPGSSVKVSCKASGYTFTSYGISWVRQAPGQGLEWMGWIGAYNGNTNYAQKLQGRVTMSTDTSTSTAYMELRSPRSDDTAVYYCARGGTGGDHVFAYWGQGTTVTVSS
VL: not shown
notes: also called clone G4_5
B2: G4_22 (antibody, human IgG1, V domains shown)
VH: QVQLVESGGGLVQPGGSLRLSCAASGFTFSTYAMSWVRQAPGKGLEWVSTVSGSGGTTYYADSVKGRFTISRDNSKNTLYLQMNSLRAEDTAVYYCAKDSTAVTDWFDPWGRGTLVTVSS
VL: DIQMTQSPSSLSASVGDRVTITCQASQDISNYLNWYQQKPGKAPKLLIYAASSLQSGVPSRFSVSGSGTDFTLTISNLQPEDFATYYCQQSYSIPWTFGQGTKVEIKR
notes: also called clone G4_22
B3: G4_1 (antibody, human IgG1, V domains shown)
VH: EVQLLESGGGVVQPGRPLRLSCAASGFTFSSYSMNWVRQAPGKGLEWVSSISSSSSYIYYADSVKGRFTISRDNSKNTLYLQMNSLRAEDTAVYYCAKGHWYFDLWGRGTLVTVSS
VL: B2 VL with A50D, S53N, Q55E, S56T, V64G, N77S, I94T, W96V, Q100P
notes: also called clone G4_1
B4: G4_16 (antibody, human IgG1, V domains shown)
VH: EVQLLESGAEVKKPGASVKVSCKASGYTFTSYGISWVRQAPGQGLEWMGWISAYNGNTNYAQKLQGRVTMTTDTSTSTAYMELRSLRSDDTAVYYCARDYGDFYGMDVWGQGTLVTVSS
VL: SQSVLTQPPSASGSPGQSVTFSCTGTSSDIGAFNSVSWYQQHPGKAPKLLIYEITKRPSGVPDRFSGSKSGNTASLTISVLQAEDEADYYCTSYAGSNTLIFGGGTKVTVLG
notes: also called 1248_P02_D10; clone G4_16
B5: G4_24 (antibody, human IgG1, V domains shown)
VH: QVQLQQSGPGLVKPSQTLSLTCAISGASVSSNSVAWNWIRQSPSRGLEWLGRTYYRSRWYNDYALSVKSRIIINPDTSKNQFSLQLNSVTPEDTAVYYCARDWSSTRSFDYWGRGTLVTVSS
VL: not shown
notes: also called clone G4_24
B6: G4_15 (antibody, human IgG1, V domains shown)
VH: EVQLVQSEAEVKKPGASVKVSCKASGYTFTRHYMHWVRQAPGQGLEWMGLINPSGSSTVYAQKFQGRVTLTRDTSTSTDYMELSSLRSEDTAVYYCARDNSHLDQVWWFDPWGQGTLVTVSS
VL: SQSALTQPASVSGSPGQSITISCTGTSSDVGGYNYVSWYQQHPGKAPKLMIYDVSNRPSGVSNRFSGSKSGNTASLTISGLQAEDEADYYCSSYGSGSVFGTGTKLTVLG
notes: also called clone G4_15
B7: G4_26 (antibody, human IgG1, V domains shown)
VH: QVQLVQSGAEVKKPGSSVKVSCKASGGTFSSYAISWVRQAPGQGLEWMGGIIPIFGTANYAQKFQGRVTITADESTSTAYMELSSLRSEDTAVYYCASSRGSGWFPLGYWGQGTLVTVSS
VL: B6 VL with A4G, G32S, Y35L, D53E, N56K, Y94F, V99I
notes: also called clone G4_26
B8: G4_25 (antibody, human IgG1, V domains shown)
VH: EVQLVESGAEVKKPGSSVKVSCKASGGTFSSYAISWVRQAPGQGLEWMGGIIPIFGTANYAQKFQGRVTITADKSTSTAYMELSSLRSEDTAVYYCARSLRDGYNYIGSLGYWGQGTLVTVSS
VL: B6 VL with A9R, I19V, D53E
notes: also called clone G4_25
B9: G4_13 (antibody, human IgG1, V domains shown)
VH: QVQLVESGAEVKKPGGSLRLSCAASGFTFSSYSMNWVRQAPGKGLEWVSSISGTSSYIYYADSVKGRFTISRDNAKNSLYLQMSSLRAEDTAVYYCARGGLGMVDPWGQGTLVTVSS
VL: SNFMLTQPHSVSESPGKTVTISCTRSSGSIASNYVQWYQQRPGSSPSTVIYEDNQRPSGVPDRFSGSIDSSSNSASLTISGLRTEDEADYYCQSYDSSIYVVFGGGTKLTVLG
notes: also called clone G4_13
B10: G4_4 (antibody, human IgG1, V domains shown)
VH: QVQLVESGGGLVQPGGSLRLSCAASGFTFSSYAMSWVRQAPGKGLEWVSAISGSGGSTYYADSVKGRFTISRDNSKNTLYLQMSSLRVEDTAVYYCAKSSVGWWSFDYWGQGTMVTVSS
VL: not shown
notes: also called clone G4_4
B11: G4_14 (antibody, human IgG1, V domains shown)
VH: EVQLVQSGAEVKKPGESLRISCKGSGYSFTSYWISWVRQMPGKGLEWMGRIDPSDSYTNYSPSFPGHVTISADKSISTAYLQWSSLKASDTAMYYCAADTAHGMDVWGRGTLVTVSS
VL: SNFMLTQPHSVSESPGKTVTISCTRSRGSIAGNYVHWYQQRPGRAPTTVIYRDKERPSGVPDRISGSIDSSSNSASLTISGLKTEDEADYYCQSYDSSTHVVFGGGTKLTVLG
notes: also called clone G4_14
B12: G4_19 (antibody, human IgG1, V domains shown)
VH: EVQLVQSGAEVKKPGASVKVSCKASGYTLTSYYMHWVRQAPGQGLEWMGIINPSGGSTSYAQKFQGRVTMTRDTSTSTVYMELSSLRSEDTAVYYCARERGYSYGDGMDVWGQGTTVTVSS
VL: SNFMLTQPHSVSESPGKTVTISCTRSSGSIASNYVQWYQQRPGSPPITLIYDDDQRPSGVPHRFSGSIDTSSNPASLTISGLKTEDEADYYCQSYDSSNHVVFGGGTKLTVLG
notes: also called clone G4_19
B13: G4_28 (antibody, human IgG1, V domains shown)
VH: QVQLVESGGGLVQPGGSLRLSCAASGFTFDDYAMHWVRQAPGKGLEWVSGISAGGGSTNYAGSVKGRFTVSRDTSKNTLYLQMNSLRAEDTAVYYCVKSYVDTAMRYYYYYMDVWGQGTMVTVSS
VL: SSYELTQDPAVSVALGQTVTITCQGDSLRNYYASWYRQKPGQTPVLVVYGKNNRPSGIPDRFSVSASGNTASLTITGAQAEDEGDYYCNSRDSSGVVFGGGTKVTVLG
notes: also called clone G4_28

Experiments:
Experiment in all cases: DELFIA ELISA, coated antigen;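 further: binding of antibody supernatants or protein-A purified antibodies to plate-coated antigen (3 µg/ml recombinant TCR or BSA), 1 h incubation at room temperature, DELFIA readout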
[1] = target: T1, BSA (bovine, UniProt P02769)
T1 construct: coated at 3 µg/ml; also called bovine serum albumin, control antigen of the DELFIA ELISA
T1 sequence (P02769 25-607 limits assumed): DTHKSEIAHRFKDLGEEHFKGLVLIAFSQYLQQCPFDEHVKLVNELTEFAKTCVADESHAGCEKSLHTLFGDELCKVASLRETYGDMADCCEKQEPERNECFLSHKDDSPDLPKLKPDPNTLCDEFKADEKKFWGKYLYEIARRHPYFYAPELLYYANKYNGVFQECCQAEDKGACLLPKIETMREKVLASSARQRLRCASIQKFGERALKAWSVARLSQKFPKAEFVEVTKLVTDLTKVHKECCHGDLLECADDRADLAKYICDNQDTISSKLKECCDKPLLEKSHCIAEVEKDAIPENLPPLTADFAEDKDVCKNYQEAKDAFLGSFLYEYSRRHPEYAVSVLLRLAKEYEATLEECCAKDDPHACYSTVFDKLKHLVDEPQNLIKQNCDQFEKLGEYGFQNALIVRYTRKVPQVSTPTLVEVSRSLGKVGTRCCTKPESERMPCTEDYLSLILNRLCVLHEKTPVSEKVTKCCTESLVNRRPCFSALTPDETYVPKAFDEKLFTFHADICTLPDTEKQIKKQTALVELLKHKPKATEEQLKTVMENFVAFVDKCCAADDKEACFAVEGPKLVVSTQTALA
Description: (§1) A DELFIA ELISA binding method was also employed to assess binding of antibody supernatants or further protein-A purified antibody. In brief, MaxiSorp plates were coated with 3 μg/ml of antigen BSA or L1 (DV1-GV4), L2 (DV1-GV2), L3 (DV1-GV8), or L4 (DV2-GV4) recombinant TCR antigen. Plates were then washed with PBS, blocked with PBS/skimmed milk and then test article added and incubated for 1 hour at room temperature.

[2] = target: T2, L1 (DV1-GV4), soluble leucine zipper γδ TCR heterodimer of a delta variable 1 chain and a gamma variable 4 … (human)
T2 construct: also called bt-L1; not shown: histidine tag/linker said to follow the zipper
T2 sequence (main, as listed by the source, chain 1 of 2): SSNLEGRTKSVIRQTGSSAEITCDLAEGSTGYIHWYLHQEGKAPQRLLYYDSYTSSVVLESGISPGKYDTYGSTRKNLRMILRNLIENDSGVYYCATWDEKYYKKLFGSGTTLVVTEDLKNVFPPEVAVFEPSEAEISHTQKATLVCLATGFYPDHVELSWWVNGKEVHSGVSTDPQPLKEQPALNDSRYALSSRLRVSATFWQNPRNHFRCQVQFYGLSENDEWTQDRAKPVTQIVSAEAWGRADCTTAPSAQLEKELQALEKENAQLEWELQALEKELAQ
T2 sequence (main, as listed by the source, chain 2 of 2): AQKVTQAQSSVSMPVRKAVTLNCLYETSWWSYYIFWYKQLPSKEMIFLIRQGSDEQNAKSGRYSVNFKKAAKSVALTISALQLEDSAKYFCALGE

[3] = target: L3 (DV1-GV8), soluble leucine zipper γδ TCR heterodimer of a delta variable 1 chain and a gamma variable 8 … (human)
Chain of L3 (DV1-GV8), soluble leucine zipper γδ TCR heterodimer of a delta variable 1 chain and a gamma variable 8 … (human) (chain, as listed by the source mutant, chain 1 of 2): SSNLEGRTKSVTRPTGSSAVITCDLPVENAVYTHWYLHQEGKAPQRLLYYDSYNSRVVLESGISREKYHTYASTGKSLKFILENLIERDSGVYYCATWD
Chain of L3 (DV1-GV8), soluble leucine zipper γδ TCR heterodimer of a delta variable 1 chain and a gamma variable 8 … (human) (chain, as listed by the source mutant, chain 2 of 2): as the sequence (main, as listed by the source, chain 2 of 2) above
Description: as §1

[4] = target: L2 (DV1-GV2), soluble leucine zipper γδ TCR heterodimer of a delta variable 1 chain and a gamma variable 2 … (human)
Chain of L2 (DV1-GV2), soluble leucine zipper γδ TCR heterodimer of a delta variable 1 chain and a gamma variable 2 … (human) (chain, as listed by the source mutant, chain 1 of 2): as the sequence (main, as listed by the source, chain 1 of 2) above, with T30N, L48Q, T54N, S56K, I63V, D69Y, G72A, K76N, M80L counted along it
Chain of L2 (DV1-GV2), soluble leucine zipper γδ TCR heterodimer of a delta variable 1 chain and a gamma variable 2 … (human) (chain, as listed by the source mutant, chain 2 of 2): as the sequence (main, as listed by the source, chain 2 of 2) above
Description: as §1

Binder	DELFIA ELISA response (FU) [1]	binding result [1]	DELFIA ELISA response (FU) [2]	DELFIA ELISA response (FU) [3]	DELFIA ELISA response (FU) [4]
B1	86 FU	no binding	163000 FU	–	–
B2	47 FU	no binding	109000 FU	980 FU	567 FU
B3	78 FU	no binding	202000 FU	244 FU	100 FU
B4	69 FU	no binding	178000 FU	118 FU	84 FU
B5	53 FU	no binding	154000 FU	960 FU	534 FU
B6	63 FU	no binding	119000 FU	156 FU	844 FU
B7	51 FU	no binding	22800 FU	870 FU	680 FU
B8	40 FU	no binding	21700 FU	885 FU	486 FU
B9	78 FU	no binding	196000 FU	270 FU	94 FU
B10	–	–	–	190 FU	90 FU
B11	135 FU	no binding	208000 FU	229 FU	199 FU
B12	55 FU	no binding	142000 FU	192 FU	73 FU
B13	65 FU	no binding	227000 FU	984 FU	576 FU
